Here are results for 5 molecules from publication PMC9854632, “Relationships between the Reversible Oxidation of the Single Cysteine Residue and the Physiological Function of the Mitochondrial Glutaredoxin S15 from Arabidopsis thaliana” (Antioxidants, 2022).

Data set [1] relates to Cys. The settings on record: cited from earlier work.
The target of data set [2] is T1, AtGRXS15 (reduced monomer) (Arabidopsis thaliana, UniProt Q8LBK6).
T1 construct: gene GRXS15; about 17 kDa on mPEG24 gel
T1 sequence (Q8LBK6 38-169): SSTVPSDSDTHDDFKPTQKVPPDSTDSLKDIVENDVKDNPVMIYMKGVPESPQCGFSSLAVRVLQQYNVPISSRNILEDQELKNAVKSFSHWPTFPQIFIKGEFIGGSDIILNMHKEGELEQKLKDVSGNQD
Put plainly: mBBr fluorescence titration of remaining free thiol. Format: binding. The settings on record: oxidant concentration for half-maximal protein thiol oxidation, no equilibrium or Michaelis constant; covalent (Cys91); 5 µM protein, 1 h, RT, 30 mM Tris-HCl pH 8.0, 200 mM NaCl.

The target in data set [3] is Cys91 (UniProt position 91, PESPQCGFSSL). Put plainly: chemical modification. The settings on record: room temperature; not stated (100 mM buffers, no added salt stated); 100 mM citrate buffers from pH 2.0 to 6.0; 100 mM phosphate buffers from pH 6.5 to 8.0; reduced (TCEP pre-reduced, desalted) apo monomer, 10 µM.
Data set [4] deals with the molecule itself. Put plainly: non-reducing SDS-PAGE after oxidation and thiol alkylation (mPEG24); pre-reduced AtGRXS15 (13 µM) incubated with 5- or 10-fold molar excess of H2O2, DTTox, GSSG or GSNO for 2 h at RT; TCA precipitation, mPEG24 alkylation, non-reducing SDS-PAGE; dimer mainly with H2O2, to some extent with GSSG and GSNO, no oxidation with DTTox.

For the molecule “Glutaredoxin S16 (AtGRXS16) (Arabidopsis thaliana)”, in data set [1], the pKa is listed as ~3.9.
Turning to “Monothiol glutaredoxin 5, mitochondrial (Grx5) (Saccharomyces cerevisiae)”, the pKa in data set [1] was ~5.0.
`N[C@@H](CCC(=O)N[C@@H](CSN=O)C(=O)NCC(=O)O)C(=O)O` [GSNO] showed an S0.5 in data set [2] of 21 ± 1 µM.
In the case of “Glutaredoxin S15, mitochondrial (AtGRXS15) (Arabidopsis thaliana)”, the pKa in data set [3] is on record as 4.0 ± 0.1.

B1: Arabidopsis thaliana mitochondrial glutaredoxin S15 (natural protein, UniProt Q8LBK6 38-169, looked up)
chain: T1 sequence (Q8LBK6 38-169)
notes: single cysteine Cys91 in the CGFS motif; no tag is named; The fractions kept after the last SEC step were the monomeric ones; The dimer seen after oxidation is covalent (intermolecular disulfide); also called AtGRXS15; GRXS15; source: E. coli C41(DE3) with pSBET helper plasmid, purified (ammonium sulfate, SEC, Q-sepharose, Superdex S75); pre-reduced with TCEP
As for B1, the “stoichiometry N” value in data set [4] is 2.
